For orientation: EC50 means the concentration that produces a half-maximal response. Read a low EC50 as an effect from little substance. One may read the Kd as the constant that tells how readily two partners part at equilibrium. A higher Kd goes with a looser complex. As a reminder, the koff is a measure of how fast the partners let go of each other. As usually defined, the kon is the second-order rate constant of association. Low values mean slower complex formation, high ones faster complex formation. Usually IC50 stands for the midpoint of a concentration-inhibition curve.

Assay [1] concerns the target T1, human PD-L1 over-expressed on HEK293E cells (human, UniProt Q9NZQ7 19-290).
T1 construct: whole, on cells; also called human PD-L1 (NM_014143.2)
In words: flow cytometry (Geometric Mean) on HEK293E cells over-expressing human PD-L1, serial dilution. How it is done:
Then, the cells were washed three times with PBS (#LB001-02, Welgene) containing 2% fetal bovine serum and reacted at 4° C. for 20 minutes with an anti-human IgG antibody (#FI-3000, Vectorlabs) conjugated with a FITC (fluorescein isothiocyanate) fluorescent substance. Then, the cells were subjected to the same washing process as above and then suspended in 0.5 ml of PBS containing 2% FBS (#26140-079, Thermo Fisher) with an FACSCanto II flow cytometer (BD Biosciences, USA) as a flow cytometer.
On the technique in general: In flow cytometry, cells or beads pass a laser one at a time.

The next assay addresses M6. Kind of assay: ELISA on coated antigen, column M6. On the procedure: (§1) An antigen PD-L1 wild type (WT) or several mutants were coated at a density of 100 ng/well on a 96-well immunoplate at 4° C. for 16 hours and the wells were blocked with 4% skim milk dissolved in PBS. Each well was washed with 0.2 ml of PBS/T, and then a single clone scFv-phage (each […]) cultured for 16 hours was added in a dose of 100 μl to each well and reacted at room temperature for 2 hours. Again, each well was washed 4 times with 0.2 ml of PBS/T, and then the second antibody, anti-Fab, was diluted to 1/2000 and reacted at room temperature for 1 hour. After washing with 0.2 ml of PBS/T, color development was performed and absorbance was measured at 490 nm.

For assay [2], the target named is T2, PD-L1 on CHO cell line highly expressing PD-L1 (PD-1/PD-L1 blockade bioassay kit, promega J1250) (UniProt Q9NZQ7 19-290, limits assumed). In words: cell-based or functional assay.
T2 sequence (Q9NZQ7 19-290 limits assumed): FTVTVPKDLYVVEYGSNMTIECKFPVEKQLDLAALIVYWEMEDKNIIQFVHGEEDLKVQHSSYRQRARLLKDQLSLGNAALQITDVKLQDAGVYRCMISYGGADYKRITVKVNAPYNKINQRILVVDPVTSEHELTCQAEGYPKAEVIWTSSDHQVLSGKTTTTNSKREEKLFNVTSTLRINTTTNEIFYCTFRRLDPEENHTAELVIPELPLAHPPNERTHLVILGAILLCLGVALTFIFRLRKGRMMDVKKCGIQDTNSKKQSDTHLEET
In a further assay the target is T3, WT (human, UniProt Q9NZQ7).
T3 construct: recombinant; also called hPD-L1; antigen PD-L1 wild type (WT)
T3 sequence (Q9NZQ7 19-238 limits assumed): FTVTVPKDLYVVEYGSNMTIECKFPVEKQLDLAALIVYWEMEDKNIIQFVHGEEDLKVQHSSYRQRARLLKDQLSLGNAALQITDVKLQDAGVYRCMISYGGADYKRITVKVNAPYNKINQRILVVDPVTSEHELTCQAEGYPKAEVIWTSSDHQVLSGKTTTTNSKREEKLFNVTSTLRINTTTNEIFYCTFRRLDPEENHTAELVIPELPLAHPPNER
In words: ELISA on coated antigen, column WT. On the procedure:
as §1

The target in a further assay is M1. In words: ELISA on coated antigen, column M1. How it is done:
as §1
(In general: ELISA stands for enzyme-linked immunosorbent assay.)

A further assay deals with M5. In words: ELISA on coated antigen, column M5. How it is done: as §1
In the next assay the target is T4, ITGA6.
T4 construct: unrelated antigen column; all antibodies give 0.5 to 0.6
T4 sequence (P23229 whole entry, species assumed, looked up): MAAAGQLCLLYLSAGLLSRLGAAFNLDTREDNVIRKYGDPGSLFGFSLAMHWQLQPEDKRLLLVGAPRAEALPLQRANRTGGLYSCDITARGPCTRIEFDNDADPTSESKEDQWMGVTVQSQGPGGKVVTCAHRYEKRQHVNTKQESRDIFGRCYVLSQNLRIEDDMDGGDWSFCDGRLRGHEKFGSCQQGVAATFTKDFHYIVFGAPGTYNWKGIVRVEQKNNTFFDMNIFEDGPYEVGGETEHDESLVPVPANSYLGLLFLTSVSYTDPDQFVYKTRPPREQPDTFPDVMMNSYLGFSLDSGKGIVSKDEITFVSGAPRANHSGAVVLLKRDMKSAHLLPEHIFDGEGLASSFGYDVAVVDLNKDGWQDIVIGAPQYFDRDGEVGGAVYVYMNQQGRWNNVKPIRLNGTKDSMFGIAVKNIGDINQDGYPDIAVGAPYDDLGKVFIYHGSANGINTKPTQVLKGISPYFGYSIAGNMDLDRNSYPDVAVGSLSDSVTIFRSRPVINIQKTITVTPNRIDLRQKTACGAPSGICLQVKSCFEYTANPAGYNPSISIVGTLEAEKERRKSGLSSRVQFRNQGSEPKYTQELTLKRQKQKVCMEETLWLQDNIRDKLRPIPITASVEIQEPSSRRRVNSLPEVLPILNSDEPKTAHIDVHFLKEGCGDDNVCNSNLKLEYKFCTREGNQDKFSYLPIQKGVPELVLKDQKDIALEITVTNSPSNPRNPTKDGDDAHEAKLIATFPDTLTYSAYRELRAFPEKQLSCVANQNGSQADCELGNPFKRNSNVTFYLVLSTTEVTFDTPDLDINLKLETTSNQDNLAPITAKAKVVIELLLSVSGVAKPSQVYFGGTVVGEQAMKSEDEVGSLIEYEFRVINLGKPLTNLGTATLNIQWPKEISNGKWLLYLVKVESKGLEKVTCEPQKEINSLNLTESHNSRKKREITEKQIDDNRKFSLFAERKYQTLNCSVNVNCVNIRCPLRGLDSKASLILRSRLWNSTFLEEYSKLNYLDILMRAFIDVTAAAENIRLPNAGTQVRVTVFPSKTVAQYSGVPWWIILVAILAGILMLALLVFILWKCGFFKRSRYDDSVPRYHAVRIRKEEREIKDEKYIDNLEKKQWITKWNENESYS
In words: ELISA on coated antigen, column ITGA6.

Assay [3] addresses T5, PD-L1-hFc (human, UniProt Q9NZQ7 19-238).
T5 construct: extracellular domain; Made in HEK-293F cells, protein A purified; also called PD-L1 antigen; PD-L1 protein
In words: kinetics on PD-L1-hFc (legend paragraph 40; text names ProteOn XPR36, the sheet's sensorgrams have a nm axis).

The target of another assay is M2. Kind of assay: ELISA on coated antigen, column M2. On the procedure: as §1
Another assay concerns the target M8. In words: ELISA on coated antigen, column M8. On the procedure: as §1
The next assay addresses M7. In words: ELISA on coated antigen, column M7.
A further assay has as its target M4. In words: ELISA on coated antigen, column M4. On the procedure: as §1
For the next assay, the target named is M3. In words: ELISA on coated antigen, column M3.
The target of assay [4] is T5, PD-L1-hFc. Kind of assay: SPR (ProteOn XPR36), PD-L1-hFc immobilised on GLC chip, antibody 30 nM to 0.123 nM as analyte. On the procedure: (§2) A ProteOn XPR36 (BioRad) instrument was used. The GLC sensor chip (BioRad) was mounted on the instrument and washed with PBST buffer, and the carboxymethyldextran surface was activated with an EDC/sulfo-NHS mixed solution. PD-L1-hFc dissolved at a concentration of 5 ug/ml in a 10 mM sodium acetate buffer solution (pH 5.0) was injected and immobilized on the GLC sensor chip.
(§3) In order to deactivate the activated carboxyl groups that remain unreacted with the PD-L1 protein, 1 M ethanolamine was flowed and 10 mM glycine (pH 2.0) was injected in order to wash proteins that remain unbound to the sensor chip.
The equilibrium dissociation constant (KD) was calculated by plotting and fitting the sensogram data in the equilibrium state depending on concentration.

In assay [5] the target is T2, PD-L1 on CHO cell line highly …. Kind of assay: cell-based or functional assay. The source holds these as a separate data set.
A further assay concerns the target T6, PD-L1-His (human, UniProt Q9NZQ7).
T6 construct: recombinant, His-tagged; also called human PD-L1-His (S1479, Y-Biologics)
Kind of assay: competition ELISA: PD-L1-His pre-incubated with the antibody, then on coated PD-1-Fc (blocked ligand); % of max absorbance.

The next assay concerns the target T7, PD-L2-Fc (human, UniProt Q9BQ51).
T7 construct: recombinant Fc fusion; also called human PD-L2-Fc (#10292-H02H, Sino)
T7 sequence (ligand-Fc, looked up): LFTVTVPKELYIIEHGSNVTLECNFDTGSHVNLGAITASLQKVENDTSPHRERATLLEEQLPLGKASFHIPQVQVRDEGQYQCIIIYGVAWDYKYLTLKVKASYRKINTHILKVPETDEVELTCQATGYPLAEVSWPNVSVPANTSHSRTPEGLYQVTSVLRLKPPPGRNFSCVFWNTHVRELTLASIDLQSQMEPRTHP
In words: ELISA on coated PD-L2-Fc (2.5 and 5 ug/well), OD450nm.

For assay [6], the target named is T2, PD-L1 on CHO cell line highly …. In words: cell-based or functional assay. This is another data set of the same source.
The next assay addresses mouse PD-L1 protein (mouse, UniProt Q9EP73 19-238, limits assumed). Kind of assay: SPR (ProteOn XPR36); format of the mouse protein not stated.
Assay [7] addresses T5, PD-L1-hFc. Kind of assay: SPR (ProteOn XPR36), PD-L1-hFc immobilised on GLC chip, antibody as analyte; human PD-L1. On the procedure: as §2, §3
The next assay concerns the target T8, cynomolgus PD-L1 protein (cynomolgus, UniProt G7PSE7 19-239).
T8 construct: also called monkey PD-L1
Kind of assay: SPR (ProteOn XPR36); format of the cynomolgus protein not stated; cynomolgus PD-L1.

Assay [8] addresses T1, human PD-L1 over-expressed on HEK293E …. Kind of assay: flow cytometry on HEK293E/PD-L1 cells, FITC anti-human IgG, serial dilutions; fit table. How it is done:
0.5 to 1×10⁶ cells per sample were prepared from the transformation cell pools highly expressing human PD-L1, and antibodies were serially diluted at a constant dilution rate and reacted with the prepared cells at 4° C. for 20 minutes. Then, the cells were washed three times with PBS (#LB001-02, Welgene) containing 2% fetal bovine serum and reacted at 4° C. for 20 minutes with an anti-human IgG antibody (#FI-3000, Vectorlabs) conjugated with a FITC (fluorescein isothiocyanate) fluorescent substance. Then, the cells were subjected to the same washing process as above and then suspended in 0.5 ml of PBS containing 2% FBS (#26140-079, Thermo Fisher) with an FACSCanto II flow cytometer (BD Biosciences, USA) as a flow cytometer (Table 11).

Where only a bound is given, the exact number is not on record here.

T1 sequence (Q9NZQ7 19-290): as the sequence (Q9NZQ7 19-290 limits assumed) above
T5 sequence (Q9NZQ7 other isoform, or with tags, fused parts or gaps limits assumed): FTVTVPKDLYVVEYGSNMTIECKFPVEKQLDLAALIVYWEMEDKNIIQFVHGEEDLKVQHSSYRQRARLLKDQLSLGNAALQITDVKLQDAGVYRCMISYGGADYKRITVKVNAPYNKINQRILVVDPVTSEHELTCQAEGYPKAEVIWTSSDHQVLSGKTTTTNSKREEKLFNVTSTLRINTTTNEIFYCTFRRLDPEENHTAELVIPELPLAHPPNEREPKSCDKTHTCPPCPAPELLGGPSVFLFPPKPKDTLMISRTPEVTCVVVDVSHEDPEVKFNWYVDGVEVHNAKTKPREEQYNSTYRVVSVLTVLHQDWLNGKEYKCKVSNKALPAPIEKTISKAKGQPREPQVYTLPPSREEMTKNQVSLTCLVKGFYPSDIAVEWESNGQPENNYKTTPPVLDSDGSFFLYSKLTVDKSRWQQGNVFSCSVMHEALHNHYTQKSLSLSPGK
T8 sequence (G7PSE7 entry or part of it): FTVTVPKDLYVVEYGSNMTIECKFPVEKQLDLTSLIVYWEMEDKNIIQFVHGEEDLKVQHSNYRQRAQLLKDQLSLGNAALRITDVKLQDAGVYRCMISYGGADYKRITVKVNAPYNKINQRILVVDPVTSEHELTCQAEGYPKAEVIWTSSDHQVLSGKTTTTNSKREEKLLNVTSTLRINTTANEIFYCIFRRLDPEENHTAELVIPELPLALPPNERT
Sequence of mouse PD-L1 protein (Q9EP73 19-238 limits assumed): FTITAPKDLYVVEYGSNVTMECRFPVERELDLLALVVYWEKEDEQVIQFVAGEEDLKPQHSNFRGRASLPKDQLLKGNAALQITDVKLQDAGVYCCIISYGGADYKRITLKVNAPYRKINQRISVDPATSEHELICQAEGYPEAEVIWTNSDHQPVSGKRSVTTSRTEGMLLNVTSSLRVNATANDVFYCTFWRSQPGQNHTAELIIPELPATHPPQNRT
T6 sequence (Q9NZQ7 19-238 limits assumed): as the sequence (Q9NZQ7 19-238 limits assumed) above

B1: PDL1-16E12 (antibody, V domains shown)
VH: QMQLVQSGAEVKKPGSSVKVSCKASGGTFSSYAISWVRQAPGQGLEWMGRIIPILGIANYAQKFQGRVTITADKSTSTAYMELSSLRSEDTAVYYCAKPRDGYNLVAFDIWGQGTMVTVSS
VL: QLVLTQPPSVSGAPGQTVTISCTGSSSNIGAGYDVHWYQQLPGTAPKLLIYGNNNRPSGVPDRFSGSKSGALASLAITGLQAEDGADYHCQSYDNSLSAHAVFGTGTKVTVL
notes: Only FR/CDR pieces are tied to the clone; also called parent antibody
In the case of B1, the EC50 in assay [1] turned out to be 1720 pM; in assay [2] it was 909 pM. In addition, the “absorbance at 490 nm” value in the assay with M6 is 2.5; with WT it was 2.5; with M1, 2.4; with M5, 2.4; in the assay with ITGA6, 0.5; in the assay with M2, 2.3. Also, the “absorbance at 490 nm” value in the assay with M8 was found to be 2.6; in the assay with M7, 2.5; with M4, 0.4; with M3, 0.9. Besides, the results for the dissociation constant (Kd) with PD-L1-hFc [3] and in the assay with PD-L1-hFc [4] were 43 pM and 45 pM, respectively. In the assay with PD-L1-hFc [3], this molecule showed a koff of 1.43e-05 s⁻¹. In addition, in the assay with PD-L1-hFc [3], the association rate constant (kon) was found to be 334000 M⁻¹ s⁻¹.

B2: PD-L1-16E12-LS-4F5 (Kappa) (antibody, V domains shown)
VH: B1 VH
VL: QLVLTQPPSVSGAPGQRVTISCTGSSSNIGAGYDVHWYQQLPGAAPKLLIYGDINRPSGVPDRFSGSKSGISASLAITGLQAEDEADYYCQSYDSSLSGGVFGGGTKLTVL
As to B2, the “Average *EC50 [nM], PD-1/PD-L1 blockade bioassay” value in assay [5] worked out at 0.25 nM. The same molecule yielded a 50% inhibitory concentration (IC50) with PD-L1-His of 7660 pM. In addition, in the assay with PD-L2-Fc, the binding result is reported as “no binding (tested: 1.0 ug/ml)”.

B3: PDL1-16E12 (LS/4F5) (antibody, V domains shown)
VH: B1 VH
VL: B2 VL
notes: also called 16E12(4F5); 16E12-4F5
Consider B3, for which, in assay [6], the “EC50 (first run)” value stood at 0.3 nM and the “EC50 (second run)” value stood at 0.21 nM. Also, in the assay with mouse PD-L1 protein, the dissociation constant Kd was 808 pM, the koff is 0.000673 s⁻¹ and the association rate constant (kon) stood at 833000 M⁻¹ s⁻¹. In the assay with PD-L1-hFc [7], this molecule displayed an equilibrium dissociation constant (Kd) of less than 32 pM, a koff of less than 1e-05 s⁻¹ and a kon of 310000 M⁻¹ s⁻¹. In the assay with cynomolgus PD-L1 protein, the dissociation constant (Kd) is less than 35 pM, the off-rate constant (koff) was less than 1e-05 s⁻¹ and the association rate constant (kon) is 287000 M⁻¹ s⁻¹. For the same molecule, in assay [8], the Bmax amounted to 4100 and the Kd was determined as 1460 pM. In the assay with PD-L1-hFc [3], this molecule came in with a Kd of 8.53 pM, a koff of 2.18e-06 s⁻¹ and an association rate constant (kon) of 256000 M⁻¹ s⁻¹.

The values are drawn from patent publication US20190322750A1 (Y BIOLOGICS, published 2019).
